{"source": "patent US20160159862A1", "about": "(PROTAGONIST THERAPEUTICS, published 2016)", "note": "Numbered stars: 1 amine (or outer) side, 2 acyl side, 3 side chain; on linkers, the order of the positions; unused ones are H or OH. Bridge positions count the residues as written; N and C are the ends. Square brackets hold non-standard residues; d marks the D form. Ends that are not written are not given here. Phe(4-CF3) = N[C@@H](Cc1ccc(C(F)(F)F)cc1)C(=O)O; 2Nal = N[C@@H](Cc1ccc2ccccc2c1)C(=O)O; Diglycolyl = O=C(COCC(=O)[*:2])[*:1]; NMeR = CN[C@@H](CCCNC(=N)N)C(=O)O; hPhe = N[C@@H](CCc1ccccc1)C(=O)O; Tic = O=C(O)[C@@H]1Cc2ccccc2CN1; Cit = NC(=O)NCCC[C@H](N)C(=O)O; Pen = CC(C)(S)[C@H](N)C(=O)O; dNMeK = CN[C@H](CCCCN)C(=O)O; Dab = NCC[C@H](N)C(=O)O; Dap = NC[C@H](N)C(=O)O", "data": [{"biological_target": "α4β7 integrin on human cells (human, UniProt P13612 34-1032; P26010 20-798)", "test": "cell-based or functional assay", "units": {"α4β7 cell (Hu) IC50": "nM"}, "values": [{"binder": "Ac-[dK]C[NMeR]SDTLCW[dK]-NH2 (disulfide 2-8 (inferred); also: dimer joined by DIG)", "note": "[SEQ ID NO 4]", "α4β7 cell (Hu) IC50": "> 10"}, {"binder": "Ac-[Pen][NMeR]SDTL[Pen]W[dE][Dap]-NH2 (disulfide 1-7 (inferred))", "note": "[SEQ ID NO 55]", "α4β7 cell (Hu) IC50": "> 100"}, {"binder": "Ac-[Pen][NMeR]SDTL[Pen]WE[Dap]-NH2 (disulfide 1-7 (inferred))", "note": "[SEQ ID NO 59]", "α4β7 cell (Hu) IC50": "> 10000"}, {"binder": "Ac-[Pen][NMeR]SDTL[Pen]W[dE][dK]-NH2 (disulfide 1-7 (inferred); also: homodimer linked by IDA, IDA-Biotine)", "note": "[SEQ ID NO 71]", "α4β7 cell (Hu) IC50": "> 25"}, {"binder": "Ac-C[NMeR]SDTL[Pen]W[dK]-NH2 (disulfide 1-7 (inferred); also: homodimer via PEG25 linker)", "note": "[SEQ ID NO 37]", "α4β7 cell (Hu) IC50": "> 100"}, {"binder": "Diglycolyl-C[NMeR]SDTLCW-NH2 (disulfide 1-7 (inferred); not fully specified; printed as DIG-NH2-C-(N-Me-R)-S-D-T-L-C-W-NH2)", "note": "[SEQ ID NO 6]", "α4β7 cell (Hu) IC50": "> 50"}, {"binder": "Ac-[Pen][NMeR]SDTL[Pen]WF[dK]-NH2 (disulfide 1-7 (inferred); also: homodimer linked by DIG)", "note": "[SEQ ID NO 85]", "α4β7 cell (Hu) IC50": "≤ 10"}, {"binder": "Ac-[Pen][NMeR]SDTL[Pen]WPK-NH2 (disulfide 1-7 (inferred); also: homodimer linked by DIG)", "note": "[SEQ ID NO 95]", "α4β7 cell (Hu) IC50": "> 100"}, {"binder": "Ac-[Pen][NMeR]SDTL[Pen]W[dE][dK]-NH2 (disulfide 1-7 (inferred); also: homodimer linked by IDA)", "note": "[SEQ ID NO 70]", "α4β7 cell (Hu) IC50": "> 25"}, {"binder": "Ac-[Pen][NMeR]SDTL[Pen]W[dE][Dab]-NH2 (disulfide 1-7 (inferred))", "note": "[SEQ ID NO 56]", "α4β7 cell (Hu) IC50": "> 500"}, {"binder": "Ac-[Pen][NMeR]SDTL[Pen]W[dE][Dap] (disulfide 1-7 (inferred); also: Ac written after C-terminal Dap, place unclear)", "note": "[SEQ ID NO 63]", "α4β7 cell (Hu) IC50": "> 1000"}, {"binder": "Ac-[Pen][NMeR]SDTL[Pen][hPhe]E[dK]-NH2 (disulfide 1-7 (inferred); also: homodimer via DIG linker)", "note": "[SEQ ID NO 45]", "α4β7 cell (Hu) IC50": "> 25"}, {"binder": "Ac-[Pen][NMeR]SDTL[Pen][Tic][dE][dK]-NH2 (disulfide 1-7 (inferred); also: homodimer linked by DIG)", "note": "[SEQ ID NO 80]", "α4β7 cell (Hu) IC50": "> 50"}, {"binder": "Ac-[Pen][NMeR]SDTLC[Tic][dE][dK]-NH2 (disulfide 1-7 (inferred); also: homodimer linked by DIG)", "note": "[SEQ ID NO 93]", "α4β7 cell (Hu) IC50": "> 500"}, {"binder": "Ac-[Pen][NMeR]SDTL[Pen]W[dE][dK] (disulfide 1-7 (inferred); not fully specified (residue 10); printed as Ac-Pen-(N-Me-R)-S-D-T-L-Pen-W-e-k-Ac)", "note": "[SEQ ID NO 66]", "α4β7 cell (Hu) IC50": "> 10000"}, {"binder": "Ac-[Pen][NMeR]SDTL[Pen]W[dP]K-NH2 (disulfide 1-7 (inferred); also: homodimer linked by DIG)", "note": "[SEQ ID NO 96]", "α4β7 cell (Hu) IC50": "> 50"}, {"binder": "Ac-[Pen][NMeR]SDTL[Pen][2Nal][dE][dNMeK]-NH2 (disulfide 1-7 (inferred); also: homodimer via DIG linker)", "note": "[SEQ ID NO 39]", "α4β7 cell (Hu) IC50": "> 10"}, {"binder": "Ac-[Pen][NMeR]SDTL[Pen]W[Cit][dK]-NH2 (disulfide 1-7 (inferred); also: homodimer linked by DIG)", "note": "[SEQ ID NO 84]", "α4β7 cell (Hu) IC50": "> 10"}, {"binder": "Ac-[Pen][NMeR]SDTL[Pen]WE[Dab] (disulfide 1-7 (inferred); not fully specified (residue 10); printed as Ac-Pen-(N-Me-R)-S-D-T-L-Pen-W-E-Dab-Ac)", "note": "[SEQ ID NO 62]", "α4β7 cell (Hu) IC50": "> 1000"}, {"binder": "Ac-[dK]C[NMeR]SDTLCW[dK]-NH2 (disulfide 2-8 (inferred); not fully specified; printed as DIG-(Ac-k-C-(N-Me-R)-S-D-T-L-C-W-k-NH2)2-DIG)", "note": "[SEQ ID NO 5]", "α4β7 cell (Hu) IC50": "> 50"}, {"binder": "Ac-[Pen][NMeR]SDTL[Pen]WQ[dK]-NH2 (disulfide 1-7 (inferred); also: homodimer linked by DIG)", "note": "[SEQ ID NO 82]", "α4β7 cell (Hu) IC50": "> 50"}, {"binder": "Ac-[Pen][NMeR]SDTL[Pen]W[dE][dK]-NH2 (disulfide 1-7 (inferred); also: homodimer linked by IDA, IDA-PEG4-Biotine)", "note": "[SEQ ID NO 72]", "α4β7 cell (Hu) IC50": "> 25"}, {"binder": "Ac-[Pen][NMeR]SDTL[Pen]W[dE][Dab] (disulfide 1-7 (inferred); not fully specified (residue 10); printed as Ac-Pen-(N-Me-R)-S-D-T-L-Pen-W-e-Dab-Ac)", "note": "[SEQ ID NO 64]", "α4β7 cell (Hu) IC50": "> 1000"}, {"binder": "Ac-[Pen][NMeR]SDTL[Pen]WE[dK] (disulfide 1-7 (inferred); not fully specified (residue 10); printed as Ac-Pen-(N-Me-R)-S-D-T-L-Pen-W-E-k-Ac)", "note": "[SEQ ID NO 65]", "α4β7 cell (Hu) IC50": "> 10000"}, {"binder": "Ac-[Pen][NMeR]SDTL[Pen]WE[Dab]-NH2 (disulfide 1-7 (inferred); also: homodimer linked by DIG)", "note": "[SEQ ID NO 97]", "α4β7 cell (Hu) IC50": "≤ 10"}, {"binder": "Ac-[Pen][NMeR]SDTL[Pen]WP[dK]-NH2 (disulfide 1-7 (inferred); also: homodimer linked by DIG)", "note": "[SEQ ID NO 94]", "α4β7 cell (Hu) IC50": "> 100"}, {"binder": "Ac-[Pen][NMeR]SDTL[Pen][2Nal]E-NH2 (disulfide 1-7 (inferred))", "note": "[SEQ ID NO 75]", "α4β7 cell (Hu) IC50": "> 50"}, {"binder": "Ac-[Pen][NMeR]SDTL[Pen]WE[Dap] (disulfide 1-7 (inferred); also: Ac written after C-terminal Dap, place unclear)", "note": "[SEQ ID NO 60]", "α4β7 cell (Hu) IC50": "> 1000"}, {"binder": "XRSDTLXWK ((Ac-Pen-(N-Me-R)-S-D-T-L-Pen-W-(N-Me-K)-NH2)2-DIG; disulfide)", "note": "[SEQ ID NO 77]", "α4β7 cell (Hu) IC50": "> 100"}, {"binder": "Ac-[Pen][NMeR]SDTL[Pen]W[dY][dK]-NH2 (disulfide 1-7 (inferred); also: homodimer linked by DIG)", "note": "[SEQ ID NO 92]", "α4β7 cell (Hu) IC50": "> 50"}, {"binder": "Ac-[Pen][NMeR]SDTL[Pen]WE[Dab]-NH2 (disulfide 1-7 (inferred))", "note": "[SEQ ID NO 61]", "α4β7 cell (Hu) IC50": "> 1000"}, {"binder": "[Pen][NMeR]SDTL[Pen][dF]-NH2 (disulfide 1-7 (inferred); not fully specified (N-terminus); printed as DIG-NH2-Pen-(N-Me-R)-S-D-T-L-Pen-f-NH2, disulfide; also: DIG-NH2 at N-terminus, probably DIG-linked dimer)", "note": "[SEQ ID NO 7]", "α4β7 cell (Hu) IC50": "> 1000"}, {"binder": "Ac-[Pen][NMeR]SDTL[Pen]W[dF][dK]-NH2 (disulfide 1-7 (inferred); also: homodimer linked by DIG)", "note": "[SEQ ID NO 91]", "α4β7 cell (Hu) IC50": "> 100"}, {"binder": "Ac-[Pen][NMeR]SDTL[Pen]WN[dK]-NH2 (disulfide 1-7 (inferred); also: homodimer linked by DIG)", "note": "[SEQ ID NO 83]", "α4β7 cell (Hu) IC50": "> 50"}, {"binder": "XRSDTLXWK ((Ac-Pen-(N-Me-R)-S-D-T-L-Pen-W-k-OH)2-DIG; disulfide)", "note": "[SEQ ID NO 76]", "α4β7 cell (Hu) IC50": "> 10"}, {"binder": "Ac-[Pen][NMeR]SDTL[Pen]WD[dK]-NH2 (disulfide 1-7 (inferred); also: homodimer linked by DIG)", "note": "[SEQ ID NO 87]", "α4β7 cell (Hu) IC50": "> 25"}, {"binder": "Ac-[Pen][NMeR]SDTL[Pen][Phe(4-CF3)][dE][dK]-NH2 (disulfide 1-7 (inferred); also: homodimer via DIG linker)", "note": "[SEQ ID NO 3]", "α4β7 cell (Hu) IC50": "> 25"}]}]}
